Results on one molecule are retold here after article PMC7864571.

This data set deals with T1, NXF1(RRM-LRR) (UniProt Q9UBU9 96-362).
T1 sequence: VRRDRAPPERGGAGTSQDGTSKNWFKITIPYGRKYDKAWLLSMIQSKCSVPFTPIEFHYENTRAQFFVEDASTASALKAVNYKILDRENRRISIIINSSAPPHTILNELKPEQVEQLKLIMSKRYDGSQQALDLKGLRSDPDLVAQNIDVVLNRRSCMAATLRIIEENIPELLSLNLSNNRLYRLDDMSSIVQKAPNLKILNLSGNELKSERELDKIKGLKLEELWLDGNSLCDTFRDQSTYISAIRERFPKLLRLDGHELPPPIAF
Briefly: EMSA; in presence of GST-Nsp1(1-129); RNA binding of NXF1 not impaired; 10 mM Tris pH 8.0, 100 mM NaCl, 0.5 mM TCEP, 8% glycerol, 0.5 U/ul SUPERase-In, room temperature 10 min; 5% native PAGE; 100 nM RNA. Particulars: protein: recombinant; tags: GST tag removed by TEV; label: 5' Alexa Fluor 488; single strand. For orientation: In EMSA bound probe runs differently from free probe, usually more slowly.

Consider UUUUUUUUUUUUUUU (ssRNA) [poly(U) 15-mer RNA], for which the binding result is recorded as “binds”.
